Here are results for 4 molecules from article PMC10460399 (Nature Communications, 2023).

Several values for one entry are separate records, joined by “and”; a condition that tells them apart may be missing. Identical values can stand only once.

B3: DmDcr-2 mutant (D1217N/D1476N, DmDcr-2^DDNN) (enzyme, Drosophila melanogaster, UniProt A1ZAW0 1-1722, looked up)
chain: MEDVEIKPRGYQLRLVDHLTKSNGIVYLPTGSGKTFVAILVLKRFSQDFDKPIESGGKRALFMCNTVELARQQAMAVRRCTNFKVGFYVGEQGVDDWTRGMWSDEIKKNQVLVGTAQVFLDMVTQTYVALSSLSVVIIDECHHGTGHHPFREFMRLFTIANQTKLPRVVGLTGVLIKGNEITNVATKLKELEITYRGNIITVSDTKEMENVMLYATKPTEVMVSFPHQEQVLTVTRLISAEIEKFYVSLDLMNIGVQPIRRSKSLQCLRDPSKKSFVKQLFNDFLYQMKEYGIYAASIAIISLIVEFDIKRRQAETLSVKLMHRTALTLCEKIRHLLVQKLQDMTYDDDDDNVNTEEVIMNFSTPKVQRFLMSLKVSFADKDPKDICCLVFVERRYTCKCIYGLLLNYIQSTPELRNVLTPQFMVGRNNISPDFESVLERKWQKSAIQQFRDGNANLMICSSVLEEGIDVQACNHVFILDPVKTFNMYVQSKGRARTTEAKFVLFTADKEREKTIQQIYQYRKAHNDIAEYLKDRVLEKTEPELYEIKGHFQDDIDPFTNENGAVLLPNNALAILHRYCQTIPTDAFGFVIPWFHVLQEDERDRIFGVSAKGKHVISINMPVNCMLRDTIYSDPMDNVKTAKISAAFKACKVLYSLGELNERFVPKTLKERVASIADVHFEHWNKYGDSVTATVNKADKSKDRTYKTECPLEFYDALPRVGEICYAYEIFLEPQFESCEYTEHMYLNLQTPRNYAILLRNKLPRLAEMPLFSNQGKLHVRVANAPLEVIIQNSEQLELLHQFHGMVFRDILKIWHPFFVLDRRSKENSYLVVPLILGAGEQKCFDWELMTNFRRLPQSHGSNVQQREQQPAPRPEDFEGKIVTQWYANYDKPMLVTKVHRELTPLSYMEKNQQDKTYYEFTMSKYGNRIGDVVHKDKFMIEVRDLTEQLTFYVHNRGKFNAKSKAKMKVILIPELCFNFNFPGDLWLKLIFLPSILNRMYFLLHAEALRKRFNTYLNLHLLPFNGTDYMPRPLEIDYSLKRNVDPLGNVIPTEDIEEPKSLLEPMPTKSIEASVANLEITEFENPWQKYMEPVDLSRNLLSTYPVELDYYYHFSVGNVCEMNEMDFEDKEYWAKNQFHMPTGNIYGNRTPAKTNANVPALMPSKPTVRGKVKPLLILQKTVSKEHITPAEQGEFLAAITASSAADVFDMERLEILGNSFLKLSATLYLASKYSDWNEGTLTEVKSKLVSNRNLLFCLIDADIPKTLNTIQFTPRYTWLPPGISLPHNVLALWRENPEFAKIIGPHNLRDLALGDEESLVKGNCSDINYNRFVEGCRANGQSFYAGADFSSEVNFCVGLVTIPNKVIADTLEALLGVIVKNYGLQHAFKMLEYFKICRADIDKPLTQLLNLELGGKKMRANVNTTEIDGFLINHYYLEKNLGYTFKDRRYLLQALTHPSYPTNRITGSYQELEFIGNAILDFLISAYIFENNTKMNPGALTDLRSALVNNTTLACICVRHRLHFFILAENAKLSEIISKFVNFQESQGHRVTNYVRILLEEADVQPTPLDLDDELDMTELPHANKCISQEAEKGVPPKGEFNMSTNVDVPKALGDVLEALIAAVYLDCRDLQRTWEVIFNLFEPELQEFTRKVPINHIRQLVEHKHAKPVFSSPIVEGETVMVSCQFTCMEKTIKVYGFGSNKDQAKLSAAKHALQQLSKCDA
notes: Dicer-2 (DmDcr-2) of Drosophila melanogaster, full length, with D1217N/D1476N (no dicing activity, helicase activity kept); also called Dicer-2; source: sf9 cells (Bac-to-Bac baculovirus), co-expressed with R2D2, purified (Ni-NTA, Hitrap Q, 2nd Ni-NTA, SEC)

In series [1] the target is T1, DmDcr-2 DDNN;R2D2;Loqs-PD (Drosophila melanogaster;Drosophila …, UniProt A1ZAW0;Q9VLW8;Q9VJY9-4 1-1722;1-311;1-359, D1217N;D1476N||). The experiment in a line: cryo-EM; ATP, Mg2+; Trimer state (EMD-34708); Cryo-EM sample buffer not in material; protein SEC buffer 100 mM NaCl, 20 mM Tris-HCl pH 8.0, 1 mM DTT; oligomers formed with ATP and Mg2+. The following applies: protein: recombinant;recombinant;recombinant; tags: purified by Ni-NTA.

Series [2] deals with T1, DmDcr-2 DDNN;R2D2;Loqs-PD. Kind of series: cryo-EM; ATP, Mg2+; Dimer state; Cryo-EM sample buffer not in material; protein SEC buffer 100 mM NaCl, 20 mM Tris-HCl pH 8.0, 1 mM DTT; oligomers formed with ATP and Mg2+. The following applies: protein: recombinant;recombinant;recombinant; tags: purified by Ni-NTA.
Series [3] concerns the molecule itself. The experiment in a line: cryo-EM structure; DmDcr-2^DDNN/R2D2/Loqs-PD complex with 50-bp dsRNA 1:1, 25 °C for 2 h, diluted to 1 uM in SEC buffer with 5 mM ATP and 5 mM MgCl2.
Series [4] has as its target B3. The series is described as above. As to conditions: both partners purified.
In series [5] the target is T2, DmDcr-2^DDNN/R2D2 complex (Drosophila melanogaster, UniProt A1ZAW0 1-1722; Q9VLW8 1-311, D1217N | D1476N).
T2 construct: Dicer-2 (DmDcr-2) of Drosophila melanogaster, full length, with D1217N/D1476N; as m1; R2D2 of Drosophila, full length; as m2; Complex formed beforehand, to which Loqs-PD was added; also called DmDcr-2/R2D2; source: sf9 cells (Bac-to-Bac baculovirus), co-expressed, purified (Ni-NTA, Hitrap Q, 2nd Ni-NTA, SEC)
The experiment in a line: SEC; purified DmDcr-2^DDNN/R2D2 and Loqs-PD mixed at a molar ratio of 1:1.5, on ice for 1 h; Superose 6 10/300 Increase in SEC buffer (100 mM NaCl, 20 mM Tris-HCl pH 8.0, 1 mM DTT). The following applies: both partners purified.

B1: 19-bp dsRNA (siRNA duplex) (dsRNA)
RNA 1: GAGACUUGGGCAAUGUGAAGU
RNA 2: GUCACAUUGCCCAAGUCUCUU
Take B1: in series [1], the binding result is given as “binds”.

B2: 50-bp dsRNA (dsRNA)
RNA 1: GAGACUUGGGCAAUGUGACUGCUGAUCAGCAGUCACAUUGCCCAAGUCUCUU
RNA 2: GAGACUUGGGCAAUGUGACUGCUGAUCAGCAGUCACAUUGCCCAAGUCUCUU
Consider B2, for which the binding result in series [2] is “binds”.

Usually stoichiometry N stands for a count of units in the complex or per binding partner. As for B3, in series [3], the “stoichiometry N” value was 2 and 3.

B4: Loqs-PD (Loquacious isoform D), full length (natural protein, Drosophila melanogaster, UniProt Q9VJY9-4 1-359, looked up)
chain: MDQENFHGSSLPQQLQNLHIQPQQASPNPVQTGFAPRRHYNNLVGLGNGNAVSGSPVKGAPLGQRHVKLKKEKISAQVAQLSQPGQLQLSDVGDPALAGGSGLQGGVGLMGVILPSDEALKFVSETDANGLAMKTPVSILQELLSRRGITPGYELVQIEGAIHEPTFRFRVSFKDKDTPFTAMGAGRSKKEAKHAAARALIDKLIGAQLPESPSSSAGPSVTGLTVAGSGGDGNANATGGGDASDKTVGNPIGWLQEMCMQRRWPPPSYETETEVGLPHERLFTIACSILNYREMGKGKSKKIAKRLAAHRMWMRLQETPIDSGKISDSICGELEGEVSIIQDIDRYEQVSKDFEFIKI
notes: Only a small segment of the C-terminus is seen in the maps; also called Loqs isoform D; source: Escherichia coli BL21 (DE3), purified (Ni-NTA, ULP1 cleavage, second Ni-NTA, SEC)
B4: the binding result in series [4] and in series [5] was “binds” throughout.
